Data published in patent US20100162418A1 (Kyowa Kirin, published 2010).

T1: human plasma-derived complement C4 binding protein (C4BP; manufactured by BioMed) (human, UniProt P04003 49-597; P20851 18-252)
T1 construct: mature; Bought plasma protein; also called Human C4BP
T1 sequence (looked up) 1: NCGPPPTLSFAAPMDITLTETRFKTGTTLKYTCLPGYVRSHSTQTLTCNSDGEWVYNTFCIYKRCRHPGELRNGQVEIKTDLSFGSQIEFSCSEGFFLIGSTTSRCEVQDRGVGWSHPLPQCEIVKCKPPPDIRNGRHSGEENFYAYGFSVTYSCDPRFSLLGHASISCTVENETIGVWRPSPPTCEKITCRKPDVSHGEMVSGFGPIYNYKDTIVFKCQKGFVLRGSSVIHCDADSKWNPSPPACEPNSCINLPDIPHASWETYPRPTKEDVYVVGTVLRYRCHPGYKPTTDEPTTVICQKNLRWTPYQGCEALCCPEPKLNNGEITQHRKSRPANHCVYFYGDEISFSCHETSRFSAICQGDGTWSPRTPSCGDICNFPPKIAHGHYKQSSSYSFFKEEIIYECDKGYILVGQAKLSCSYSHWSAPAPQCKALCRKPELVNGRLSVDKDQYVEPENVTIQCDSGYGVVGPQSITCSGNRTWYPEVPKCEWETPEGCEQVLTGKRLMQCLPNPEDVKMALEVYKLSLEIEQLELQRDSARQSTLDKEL
T1 sequence (looked up) 2: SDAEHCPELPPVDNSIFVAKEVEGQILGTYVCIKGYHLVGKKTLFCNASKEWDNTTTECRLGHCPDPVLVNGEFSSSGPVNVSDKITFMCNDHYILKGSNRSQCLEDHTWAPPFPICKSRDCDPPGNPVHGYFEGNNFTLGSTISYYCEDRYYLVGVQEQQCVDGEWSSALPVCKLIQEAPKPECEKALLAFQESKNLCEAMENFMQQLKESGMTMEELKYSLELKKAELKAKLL

B1: Lens culinaris agglutinin (LCA) lectin (manufactured by Vector Laboratories) (other)
chain 1: TETTSFSITKFSPDQKNLIFQGDGYTTKGKLTLTKAVKSTVGRALYSTPIHIWDRDTGNVANFVTSFTFVIDAPSSYNVADEFTFFIAPVDTKPQTGGGYLGVFNSKEYDKTSQTVAVEFDTFYNAAWDPSNKERHIGIDVNSIKSVNTKSWNLQNGERANVVIAFNAATNVLTVTLTYP
chain 2: VTSYTLNEVVPLKDVVPEWVRIGFSATTGAEFAAHEVHSWSFHSELGGTSSS
notes: A lectin; also called lentil lectin
B2: MSPS, purified recombinant human Protein S obtained from FUT8 knockout CHO/DG44 cells (other)
chain: ANSLLEETKQGNLERECIEELCNKEEAREVFENDPETDYFYPKYLVCLRSFQTGLFTAARQSTNAYPDLRSCVNAIPDQCSPLPCNEDGYMSCKDGKASFTCTCKPGWQGEKCEFDINECKDPSNINGGCSQICDNTPGSYHCSCKNGFVMLSNKKDCKDVDECSLKPSICGTAVCKNIPGDFECECPEGYRYNLKSKSCEDIDECSENMCAQLCVNYPGGYTCYCDGKKGFKLAQDQKSCEVVSVCLPLNLDTKYELLYLAEQFAGVVLYLKFRLPEISRFSAEFDFRTYDSEGVILYAESIDHSAWLLIALRGGKIEVQLKNEHTSKITTGGDVINNGLWNMVSVEELEHSISIKIAKEAVMDINKPGPLFKPENGLLETKVYFAGFPRKVESELIKPINPRLDGCIRSWNLMKQGASGIKEIIQEKQNKHCLVTVEKGSYYPGSGIAQFHIDYNNVSSAEGWHVNVTLNIRPSTGTGVMLALVSGNNTVPFAVSLVDSTSEKSQDILLSVENTVIYRIQALSLCSDQQSHLEFRVNRNNLELSTPLKIETISHEDLQRQLAVLDKAMKAKVATYLGGLPDVPFSATPVNAFYNGCMEVNINGVQLDLDEAISKHNDIRAHSCPSVWKKTKNS
modifications: gamma-carboxylated glutamic acid (Gla) in the Gla domain; complex type N-glycoside-linked sugar chains without fucose (fucose not detected)
notes: It differs from KCPS only in glycosylation (no core fucose); also called fucose-free recombinant Protein S
B3: recombinant human CD14 protein (manufactured by R&D systems) (receptor, UniProt P08571 20-352, looked up)
chain: TTPEPCELDDEDFRCVCNFSEPQPDWSEAFQCVSAVEVEIHAGGLNLEPFLKRVDADADPRQYADTVKALRVRRLTVGAAQVPAQLLVGALRVLAYSRLKELTLEDLKITGTMPPLPLEATGLALSSLRLRNVSWATGRSWLAELQQWLKPGLKVLSIAQAHSPAFSCEQVRAFPALTSLDLSDNPGLGERGLMAALCPHKFPAIQNLALRNTGMETPTGVCAALAAAGVQPHSLDLSHNSLRATVNPSAPRCMWSSALNSLNLSFAGLEQVPKGLPAKLRVLDLSCNRLNRAPQPDELPEVDNLTLDGNPFLVPGTALPHEGSMNSGVVPAC
notes: Bought
B4: human plasma-derived Protein S (manufactured by Calbiochem) (other)
chain: B2 chain
modifications: gamma-carboxylated glutamic acid (Gla) in the N-terminal Gla domain; complex type N-glycoside-linked sugar chains (Asn458, Asn468, Asn489), partly with core alpha1,6-fucose (Fuc 0.26 per Man 3.00)
notes: Bought protein purified from human plasma; also called native Protein S; Human plasma Protein S
B5: KCPS, purified recombinant human Protein S obtained from CHO/DG44 cells (other)
chain: B2 chain
modifications: gamma-carboxylated glutamic acid (Gla) in the Gla domain; complex type N-glycoside-linked sugar chains with fucose (Fuc 0.69 per Man 3.00)
notes: It differs from MSPS only in glycosylation (highest core fucose ratio)

Experiments:
[1] = biological target: KCPS, purified recombinant human Protein S obtained from CHO/DG44 cells (human) (UniProt P07225); assay: SPR (Biacore T100), KCPS immobilised on CM5, C-17 as analyte
[2] = biological target: MSPS, purified recombinant human Protein S obtained from FUT8 knockout CHO/DG44 cells (human) (UniProt P07225); assay: SPR (Biacore T100), MSPS immobilised on CM5, C-17 as analyte
[3] = biological target: human plasma-derived Protein S (manufactured by Calbiochem) (human) (UniProt P07225); assay: SPR (Biacore T100), Protein S immobilised on CM5, C-17 as analyte
[4] = biological target: T2, human plasma-derived antithrombin III (manufactured by Calbiochem) (human, UniProt P01008 33-464, four asparagine-linked sugar chains without core alpha1,6-fucose); assay: SPR (Biacore T100), antithrombin III immobilised on CM5 chip, LCA as analyte
T2 construct: mature; Bought plasma protein; also called human plasma antithrombin III
T2 sequence (P01008 33-464): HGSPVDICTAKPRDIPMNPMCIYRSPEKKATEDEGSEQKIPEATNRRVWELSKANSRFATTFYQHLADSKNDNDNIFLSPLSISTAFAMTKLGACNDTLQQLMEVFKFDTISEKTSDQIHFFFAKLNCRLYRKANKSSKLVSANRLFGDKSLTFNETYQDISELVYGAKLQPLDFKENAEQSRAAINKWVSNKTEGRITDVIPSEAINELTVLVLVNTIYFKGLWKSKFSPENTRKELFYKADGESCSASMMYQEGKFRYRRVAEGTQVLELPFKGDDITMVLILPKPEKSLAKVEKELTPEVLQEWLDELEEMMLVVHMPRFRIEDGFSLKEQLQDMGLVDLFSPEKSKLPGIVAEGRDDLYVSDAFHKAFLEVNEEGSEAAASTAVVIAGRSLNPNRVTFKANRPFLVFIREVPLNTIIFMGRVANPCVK
Method: The abscissa represents time (seconds), and the ordinate represents a binding activity of LCA to a glycoprotein on a sensor chip of Biacore T100. From the top, each sensorgram represents a value obtained when LCA was allowed to run at concentrations of 50000, 25000, 12500, 6250, 3125 and 0 ng/mL. The top represents the binding between human plasma Protein S and LCA, and the bottom represents the binding between human plasma antithrombin III and LCA.
Next, in order to analyze the binding mode of fucose added to the sugar chain of the human plasma-derived Protein S, the binding between core α1,6-fucose-specific lectin, Lens culinaris agglutinin (LCA) lectin and Protein S was analyzed by surface plasmon resonance. Using an amine coupling kit (manufactured by Biacore), human plasma-derived Protein S (manufactured by Calbiochem) and human plasma-derived antithrombin III (manufactured by Calbiochem) were respectively immobilized on flow cells of a CM5 sensor chip (manufactured by Biacore). The human plasma-derived antithrombin III is a glycoprotein having four asparagine-linked sugar chains, but these sugar chains are known not to have core α1,6-fucose (WO2005/035563). An immobilized amount of the ligand protein on the respective flow cells was set to the range of 2000 to 3000 resonance units (hereinafter referred to as “RU”). […]

[5] = biological target: T3, recombinant human RAGE-Fc fusion protein (manufactured by R&D Systems) (human, UniProt Q15109 24-344); assay: SPR (Biacore T100), Protein S immobilised on CM5, RAGE-Fc as analyte
T3 construct: Bought fusion protein; also called recombinant soluble RAGE-human IgG1 Fc chimeric protein; not shown: Fc of human IgG1
T3 sequence (Q15109 24-344 limits assumed): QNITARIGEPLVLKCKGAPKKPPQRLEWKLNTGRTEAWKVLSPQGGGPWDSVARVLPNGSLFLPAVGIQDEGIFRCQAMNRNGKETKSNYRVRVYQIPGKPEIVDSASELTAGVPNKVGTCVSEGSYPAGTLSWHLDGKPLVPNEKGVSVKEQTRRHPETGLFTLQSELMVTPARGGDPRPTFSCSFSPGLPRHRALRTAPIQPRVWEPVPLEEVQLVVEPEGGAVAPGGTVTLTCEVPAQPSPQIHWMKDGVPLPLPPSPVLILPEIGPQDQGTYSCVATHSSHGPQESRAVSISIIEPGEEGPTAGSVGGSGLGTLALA

[6] = biological target: T1, human plasma-derived complement C4 …; assay: SPR (Biacore T100), MSPS immobilised on CM5, C4BP as analyte
Excerpt: (§1) Using an amine coupling kit (manufactured by Biacore), human plasma-derived Protein S (manufactured by Calbiochem), and recombinant human Protein S prepared in Example 4, MSPS and KCPS were respectively immobilized on flow cells of a CM5 sensor chip (manufactured by Biacore). An immobilized amount of the ligand protein on the respective flow cells was set to the range of 1500 to 2000 RU. Then, an anti-human Protein S antibody C-17 (manufactured by Santa Cruz) (FIG. 7), or a human plasma-derived complement C4 binding protein (manufactured by BioMed) diluted to given concentrations (50000, 25000, 12500, 6250, 3125, and 1562 ng/mL) using HBS-EP+buffer (manufactured by Biacore), as an analyte, was allowed to run and bind to the ligand-immobilized flow cells at a temperature of 25° C., a flow rate of 5 μL/min, association time of 140 seconds, and dissociation time of 240 seconds. The anti-human Protein S antibody C-17 and the human plasma-derived complement C4 binding protein are known to bind to the sex hormone-binding globulin-like domain (SHBG domain) at the carboxyl terminal of Protein S. The chip was regenerated by a flow of an aqueous glycine solution (pH 1.5) (manufactured by Biacore) for 60 seconds. Dissociation constants calculated by analysis of the obtained data using Biacore T100 evaluation software ver 1.1 (manufactured by Biacore) are given in Table 2 below.

[7] = biological target: B2; assay: SPR (Biacore T100), Protein S immobilised on C1 chip, CD14 as analyte
Method: Using an amine coupling kit, human plasma-derived Protein S, and recombinant human Protein S prepared in Example 3, MSPS were respectively immobilized at 700 to 800 RU on flow cells of a Series S C1 sensor chip (manufactured by Biacore). Then, the experiment was carried out in the same manner as in Example 5, using a recombinant human CD14 protein (manufactured by R&D systems) diluted to given concentrations (25000, 12500, 6250, 3125, and 1562 ng/mL) using HBS-EP+buffer (manufactured by Biacore), as an analyte.

[8] = biological target: T1, human plasma-derived complement C4 …; assay: SPR (Biacore T100), Protein S immobilised on CM5, C4BP as analyte
Excerpt: as §1

[9] = biological target: T1, human plasma-derived complement C4 …; assay: SPR (Biacore T100), KCPS immobilised on CM5, C4BP as analyte
Excerpt: as §1

Question: What does the source list for “anti-human Protein S antibody C-17 (manufactured by Santa Cruz)”?
Answer: Kd [1]: 220 nM; Kd [2]: 240 nM; Kd [3]: 230 nM

Question: Does B1 bind [4]?
Answer: Result: no binding (tested: 50000 ng/mL)

Question: What does the source list for B2?
Answer: fold affinity for RAGE against human plasma Protein S [5]: ~7 fold; Kd [6]: 92 nM

Question: Does B3 bind [7]?
Answer: Result: binds

Question: Which Kd [8] does the source give for B4 here?
Answer: The Kd was 101 nM.

Question: How did the Kd [9] turn out when B5 was run?
Answer: Its Kd is 81 nM.
